These are literature values, as cited in article PMC3557855.

Assay in all cases: SPR
Series [1] concerns the target GlyCAM-1 (Mus musculus) (UniProt Q02596).
The target in series [2] is ESL-1 (UniProt Q61543).
For series [3], the target named is PSGL-1 (Homo sapiens) (UniProt Q14242).
Chain of UniProt Q14242 (Q14242 42-320): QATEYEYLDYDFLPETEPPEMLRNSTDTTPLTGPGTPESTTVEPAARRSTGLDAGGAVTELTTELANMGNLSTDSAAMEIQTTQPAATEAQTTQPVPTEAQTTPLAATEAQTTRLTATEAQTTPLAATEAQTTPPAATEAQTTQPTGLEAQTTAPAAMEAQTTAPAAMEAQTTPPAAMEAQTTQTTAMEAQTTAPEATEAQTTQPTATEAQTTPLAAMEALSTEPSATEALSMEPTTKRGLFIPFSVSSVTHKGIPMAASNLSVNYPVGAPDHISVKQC

Chain of UniProt Q61543 (Q61543 28-1141): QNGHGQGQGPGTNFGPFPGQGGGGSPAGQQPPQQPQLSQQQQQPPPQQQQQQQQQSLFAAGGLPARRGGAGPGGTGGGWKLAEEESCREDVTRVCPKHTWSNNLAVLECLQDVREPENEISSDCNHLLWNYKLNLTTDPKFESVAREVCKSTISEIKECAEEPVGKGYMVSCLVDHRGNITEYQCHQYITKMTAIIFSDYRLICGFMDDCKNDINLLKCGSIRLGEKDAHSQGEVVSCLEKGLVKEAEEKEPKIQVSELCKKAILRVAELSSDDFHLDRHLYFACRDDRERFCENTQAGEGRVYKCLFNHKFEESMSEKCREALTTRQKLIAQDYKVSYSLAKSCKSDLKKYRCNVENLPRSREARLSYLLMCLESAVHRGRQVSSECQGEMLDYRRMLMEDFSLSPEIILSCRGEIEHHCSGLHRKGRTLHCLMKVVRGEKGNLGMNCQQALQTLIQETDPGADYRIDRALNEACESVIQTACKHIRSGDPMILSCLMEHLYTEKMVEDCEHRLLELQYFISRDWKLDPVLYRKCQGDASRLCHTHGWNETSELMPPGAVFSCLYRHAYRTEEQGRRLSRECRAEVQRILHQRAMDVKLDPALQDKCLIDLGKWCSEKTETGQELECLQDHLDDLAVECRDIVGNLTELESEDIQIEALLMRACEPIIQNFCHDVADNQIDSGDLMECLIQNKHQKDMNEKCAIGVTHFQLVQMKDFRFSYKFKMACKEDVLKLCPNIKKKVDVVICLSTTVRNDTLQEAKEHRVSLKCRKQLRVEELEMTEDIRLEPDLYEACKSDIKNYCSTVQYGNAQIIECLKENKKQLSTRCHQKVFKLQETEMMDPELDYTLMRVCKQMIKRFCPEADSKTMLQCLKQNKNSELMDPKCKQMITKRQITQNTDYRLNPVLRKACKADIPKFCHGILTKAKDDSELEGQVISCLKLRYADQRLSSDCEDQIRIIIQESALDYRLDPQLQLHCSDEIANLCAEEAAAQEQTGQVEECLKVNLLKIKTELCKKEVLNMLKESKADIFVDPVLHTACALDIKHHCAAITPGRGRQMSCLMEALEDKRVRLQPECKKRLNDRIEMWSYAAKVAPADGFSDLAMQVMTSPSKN
Chain of UniProt Q02596 (Q02596 20-151): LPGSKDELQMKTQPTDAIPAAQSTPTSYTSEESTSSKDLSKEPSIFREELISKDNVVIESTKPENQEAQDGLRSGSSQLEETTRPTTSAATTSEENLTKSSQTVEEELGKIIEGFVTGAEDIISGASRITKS

On to L-selectin (from UniProt P18337), for which the Kd (as a rule, the concentration at which binding is half-saturated) in series [1] was 108 µM. For the substance E-selectin (from UniProt P16581), in series [2], the Kd is 62 µM. As for L-selectin (from UniProt P14151), in series [3], the Kd is 47 µM.
